Assay results taken from US20240034774A1.
Numbering of substitutions follows the chain as printed.

Columns and labels:
Assay in all cases: cell-based or functional assay
[1] = target: HIV-1 envelope glycoprotein (gp120) of virus 8134 (HIV-1)
[2] = target: HIV-1 envelope glycoprotein (gp120) of virus THRO (HIV-1)
[3] = target: HIV-1 envelope glycoprotein (gp120) of virus VS030 (HIV-1)
[4] = target: HIV-1 envelope glycoprotein (gp120) of virus 92US727 (HIV-1)
[5] = target: HIV-1 envelope glycoprotein (gp120) of virus 92US712 (HIV-1)
[6] = target: HIV-1 envelope glycoprotein (gp120) of virus 7714 (HIV-1)
[7] = target: HIV-1 envelope glycoprotein (gp120) of virus VS001 (HIV-1)
[8] = target: HIV-1 envelope glycoprotein (gp120) of virus 1003 (HIV-1)
[9] = target: HIV-1 envelope glycoprotein (gp120) of virus 8106 (HIV-1)
[10] = target: HIV-1 envelope glycoprotein (gp120) of virus 7141 (HIV-1)
[11] = target: HIV-1 envelope glycoprotein (gp120) of virus 8110 (HIV-1)
[12] = target: HIV-1 envelope glycoprotein (gp120) of virus VS026 (HIV-1)
[13] = target: HIV-1 envelope glycoprotein (gp120) of virus 8117 (HIV-1)
[14] = target: HIV-1 envelope glycoprotein (gp120) of virus VS039 (HIV-1)
[15] = target: HIV-1 envelope glycoprotein (gp120) of virus 8320 (HIV-1)
[16] = target: HIV-1 envelope glycoprotein (gp120) of virus 8318 (HIV-1)
[17] = target: HIV-1 envelope glycoprotein (gp120) of virus 7467 (HIV-1)
[18] = target: HIV-1 envelope glycoprotein (gp120) of virus 8176 (HIV-1)
[19] = target: HIV-1 envelope glycoprotein (gp120) of virus 7015 (HIV-1)
[20] = target: HIV-1 envelope glycoprotein (gp120) of virus 92HT593 (HIV-1)
[21] = target: HIV-1 envelope glycoprotein (gp120) of virus 92US657 (HIV-1)
[22] = target: HIV-1 envelope glycoprotein (gp120) of virus 1413 (HIV-1)
[23] = target: HIV-1 envelope glycoprotein (gp120) of virus 302076 (HIV-1)
[24] = target: HIV-1 envelope glycoprotein (gp120) of virus VS043 (HIV-1)
[25] = target: HIV-1 envelope glycoprotein (gp120) of virus VS004 (HIV-1)
[26] = target: HIV-1 envelope glycoprotein (gp120) of virus 7552 (HIV-1)
[27] = target: HIV-1 envelope glycoprotein (gp120) of virus VS042 (HIV-1)
[28] = target: HIV-1 envelope glycoprotein (gp120) of virus 1012 (HIV-1)
[29] = target: HIV-1 envelope glycoprotein (gp120) of virus VS017 (HIV-1)
[30] = target: HIV-1 envelope glycoprotein (gp120) of virus 7576 (HIV-1)
[31] = target: HIV-1 envelope glycoprotein (gp120) of virus VS049 (HIV-1)
[32] = target: HIV-1 envelope glycoprotein (gp120) of virus 7051 (HIV-1)
[33] = target: HIV-1 envelope glycoprotein (gp120) of virus REJO (HIV-1)
[34] = target: HIV-1 envelope glycoprotein (gp120) of virus CHO77 (HIV-1)
[35] = target: HIV-1 envelope glycoprotein (gp120) of virus 7595 (HIV-1)
[36] = target: HIV-1 envelope glycoprotein (gp120) of virus VS044 (HIV-1)
[37] = target: HIV-1 envelope glycoprotein (gp120) of virus VS046 (HIV-1)
[38] = target: HIV-1 envelope glycoprotein (gp120) of virus 1489 (HIV-1)
[39] = target: HIV-1 envelope glycoprotein (gp120) of virus 7103 (HIV-1)
[40] = target: HIV-1 envelope glycoprotein gp120 of virus CHO77 (HIV-1 (subtype B))
[41] = target: HIV-1 envelope glycoprotein gp120 of virus 92US657 (HIV-1 (subtype B))
[42] = target: HIV-1 envelope glycoprotein gp120 of virus BaL (HIV-1 (subtype B))

B1: Antibody 1.1.119-1 (antibody, human IgG1, kappa, V domains shown)
VH: QVQLLQSGAAVTKPGASVRVSCEASGYNIRDYFIHWWRQAPGQGLQWVGWINPKTGQPNNPRQFQGRVSLTRHASWDFDTFSFYMDLKALRSDDTAVYFCARQRSDYWDFDVWGSGTQVTVSS
VL: DIQMTQSPSSLSASVGDRATITCQANGYLNWYQQRRGKAPKLLIYDGSKLERGVPSRFSGSRWGQEYTLTISSLQPEDIATYFCQVYEFFGPGTRLDLKR
Virus Neutralization Potency [1]: 3.44 µg/mL | Virus Neutralization Potency [2]: 2.8 µg/mL | Virus Neutralization Potency [3]: 4.96 µg/mL | Virus Neutralization Potency [4]: 43.7 µg/mL | Virus Neutralization Potency [5]: 0.03 µg/mL | Virus Neutralization Potency [6]: 1.93 µg/mL | Virus Neutralization Potency [7]: 0.37 µg/mL | Virus Neutralization Potency [8]: 0.91 µg/mL | Virus Neutralization Potency [9]: 1.44 µg/mL | Virus Neutralization Potency [10]: 4.98 µg/mL | Virus Neutralization Potency [11]: 2.37 µg/mL | Virus Neutralization Potency [12]: 0.14 µg/mL | Virus Neutralization Potency [13]: 1.66 µg/mL | Virus Neutralization Potency [14]: 0.13 µg/mL | Virus Neutralization Potency [15]: 1.47 µg/mL | Virus Neutralization Potency [16]: 0.42 µg/mL | Virus Neutralization Potency [17]: 0.19 µg/mL | Virus Neutralization Potency [18]: 0.27 µg/mL | Virus Neutralization Potency [19]: 1.08 µg/mL | Virus Neutralization Potency [20]: 0.15 µg/mL | Virus Neutralization Potency [21]: 0.3 µg/mL | Virus Neutralization Potency [22]: 4.52 µg/mL | Virus Neutralization Potency [23]: 0.08 µg/mL | Virus Neutralization Potency [24]: 0.81 µg/mL | Virus Neutralization Potency [25]: 6.02 µg/mL | Virus Neutralization Potency [26]: > 80 µg/mL | Virus Neutralization Potency [27]: 2.19 µg/mL | Virus Neutralization Potency [28]: 1.06 µg/mL | Virus Neutralization Potency [29]: 2.75 µg/mL | Virus Neutralization Potency [30]: 0.6 µg/mL | Virus Neutralization Potency [31]: > 100 µg/mL | Virus Neutralization Potency [32]: 1.89 µg/mL | Virus Neutralization Potency [33]: 0.03 µg/mL | Virus Neutralization Potency [34]: 0.02 µg/mL | Virus Neutralization Potency [35]: 3.07 µg/mL | Virus Neutralization Potency [36]: 0.2 µg/mL | Virus Neutralization Potency [37]: 0.03 µg/mL | Virus Neutralization Potency [38]: 0.17 µg/mL | Virus Neutralization Potency [39]: 1.16 µg/mL

B2: Antibody 1.36.35-1 (antibody, human IgG1, kappa, V domains shown)
VH: QVQLVQSGAEVKKPGASVRVSCKASGYNIRDYFMHWWRQAPGQGLQWVGWINPKTGQPNNPRQFQGRVTMTRHASWDFDTFSAYMDLSRLRSDDTATYFCARQRTDYWDFDVWGQGTMVTVSS
VL: B1 VL with A19V, R35K, R36P, K49N, R52T, F90V, R95N, L98I
Virus Neutralization Potency (IC50) [40]: 0.32 µg/mL | Virus Neutralization Potency (IC50) [41]: 5.37 µg/mL | Virus Neutralization Potency (IC50) [42]: > 20 µg/mL
